From publication PMC5146279, “Atomic structure of the innexin-6 gap junction channel determined by cryo-EM” (Nature Communications, 2016)

Tests used:
[1] = molecular target: the molecule itself; experiment: cryo-EM structure; INX-6 gap junction channel by single-particle analysis, 35,608 particles, D8 symmetry, 3.6 Å; sample after GraDeR, 10 mM Tris pH 7.5, 500 mM NaCl
[2] = molecular target: the molecule itself; experiment: cryo-EM structure; INX-6 hemichannel (docked class) by single-particle analysis, 74,398 particles, C8 symmetry, 3.3 Å; sample after GraDeR, 10 mM Tris pH 7.5, 500 mM NaCl

B1: Caenorhabditis elegans innexin-6 (INX-6) wild type (natural protein, UniProt Q9U3N4 1-389, looked up)
chain: MASQVGAINSVNALISRVFVQPKGDLADRLNSRVTVVILAVSSALLLSSHFIGDPITCWTPAQFNAQWVNFVNQYCFVHGTYFVPLDQQLAFEEEERTKVSIQYYQWVPYVFALQAFLFYIPRFIWKAMIAYSGYDLAAAVKYVDRFWSENRDKDDKFKTRLAAFEGRPSVYIWDGIRLARKKRSRNMALFYTLSTVWQAVNAWIQFYILTQLLDSSIYTLWGPSILGDLLQGNDWQTTGHFPRIVHCDFNRRRPASVQLDTVLCVLTLNIYYEKLFIFLWFWLVFVAVVSTVNCFKWIYYLCNKTKAQKTIKNYLSTAPIKSTISDDQFFSALGEDGLFIMDQMALNLGDIPASYLTISMRNICQDFIESEDYIDEERTPFVKSIKHT
notes: Innexin-6 (INX-6), C. elegans, wild type; Eight copies form a hemichannel and 16 copies the docked gap junction channel; also called INX-6 WT; INX-6 hemichannel; source: Sf9 cells infected with recombinant virus, purified (Ni-NTA, tag digested, gel filtration, GraDeR); not shown: GFP, C-terminal, cleaved; His8, C-terminal, cleaved; copies: 16
stoichiometry N [1]: 16 | stoichiometry N [2]: 8
